From PMC4361618, “Nab3 Facilitates the Function of the TRAMP Complex in RNA Processing via Recruitment of Rrp6 Independent of Nrd1” (PLoS Genetics, 2015)
Each block holds one binder with its values, some of them ahead of it.

B1: His-tagged full-length Rrp6 (enzyme, S. cerevisiae, UniProt Q12149 1-733, looked up)
chain: MTSENPDVLLSRVINVVRAASSLASQDVDFYKNLDRGFSKDLKSKADKLADMANEIILSIDEHHESFELKEEDISDLWNNFGNIMDNLLEMSDHSLDKLNCAINSKSRGSDLQYLGEFSGKNFSPTKRVEKPQLKFKSPIDNSESHPFIPLLKEKPNALKPLSESLRLVDDDENNPSHYPHPYEYEIDHQEYSPEILQIREEIPSKSWDDSVPIWVDTSTELESMLEDLKNTKEIAVDLEHHDYRSYYGIVCLMQISTRERDYLVDTLKLRENLHILNEVFTNPSIVKVFHGAFMDIIWLQRDLGLYVVGLFDTYHASKAIGLPRHSLAYLLENFANFKTSKKYQLADWRIRPLSKPMTAYARADTHFLLNIYDQLRNKLIESNKLAGVLYESRNVAKRRFEYSKYRPLTPSSEVYSPIEKESPWKILMYQYNIPPEREVLVRELYQWRDLIARRDDESPRFVMPNQLLAALVAYTPTDVIGVVSLTNGVTEHVRQNAKLLANLIRDALRNIKNTNEEATPIPSSETKADGILLETISVPQIRDVMERFSVLCNSNISKSRAKPVTNSSILLGKILPREEHDIAYSKDGLPNKVKTEDIRIRAQNFKSALANLEDIIFEIEKPLVVPVKLEEIKTVDPASAPNHSPEIDNLDDLVVLKKKNIQKKQPAKEKGVTEKDAVDYSKIPNILSNKPGQNNRQQKKRRFDPSSSDSNGPRAAKKRRPAAKGKNLSFKR
notes: Rrp6, S. cerevisiae nuclear exosome 3'-5' riboexonuclease, full length, cloned into pET30a-TEV; also called His-Rrp6; His6-RRP6; source: E. coli DE3 cells, purified (nickel-NTA agarose, batch)

Tests used:
[1] = molecular target: T1, recombinant GST-tagged full-length Nab3 (S. cerevisiae, UniProt P38996 1-802); assay: pull-down; 8 μg purified GST fusion incubated with 14 μg purified His-Rrp6 and glutathione Sepharose 4B in IPP100 buffer (10 mM Tris-HCl pH 8, 100 mM NaCl, 0.1% NP-40) with 10 mg/ml BSA, 2 mM DTT, 2 hr at 4°C; anti-His immunoblot; settings: both partners purified
T1 construct: Nab3, S. cerevisiae, full length, cloned into pGEX-TEV; also called GST-Nab3; source: E. coli DE3 cells, purified (glutathione Sepharose 4B, batch)
T1 sequence (looked up): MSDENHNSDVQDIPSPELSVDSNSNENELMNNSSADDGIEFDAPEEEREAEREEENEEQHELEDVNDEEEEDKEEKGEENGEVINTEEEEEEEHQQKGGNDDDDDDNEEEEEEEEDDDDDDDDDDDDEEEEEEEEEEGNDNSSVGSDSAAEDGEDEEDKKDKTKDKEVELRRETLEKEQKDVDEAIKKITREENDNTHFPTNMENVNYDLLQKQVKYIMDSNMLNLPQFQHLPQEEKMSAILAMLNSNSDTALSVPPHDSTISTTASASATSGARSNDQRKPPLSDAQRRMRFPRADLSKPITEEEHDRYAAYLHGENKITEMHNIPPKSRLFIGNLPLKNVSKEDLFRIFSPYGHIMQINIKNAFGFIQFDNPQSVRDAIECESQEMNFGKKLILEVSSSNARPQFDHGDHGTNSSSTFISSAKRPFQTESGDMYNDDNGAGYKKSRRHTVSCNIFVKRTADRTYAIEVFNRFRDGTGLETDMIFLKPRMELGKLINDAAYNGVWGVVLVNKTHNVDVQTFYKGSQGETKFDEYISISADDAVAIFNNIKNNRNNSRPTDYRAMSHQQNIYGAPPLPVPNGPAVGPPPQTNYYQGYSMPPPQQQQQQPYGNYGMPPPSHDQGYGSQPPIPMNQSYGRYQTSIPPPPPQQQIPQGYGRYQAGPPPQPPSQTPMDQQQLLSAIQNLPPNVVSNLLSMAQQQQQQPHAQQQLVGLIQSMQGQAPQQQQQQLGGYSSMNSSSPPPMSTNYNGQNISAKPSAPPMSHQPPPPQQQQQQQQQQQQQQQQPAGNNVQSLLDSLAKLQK

[2] = molecular target: T2, TAP-tagged Nrd1 (S. cerevisiae, UniProt P53617 1-575); assay: co-IP; TAP-tagged Nrd1 precipitated on IgG Sepharose beads from lysates of NRD1-TAP yeast cells expressing Myc-tagged Nab3 proteins; IPP150 buffer (10 mM Tris-HCl pH 8, 150 mM NaCl, 0.1% NP-40), overnight at 4°C; anti-Myc immunoblot; % bound relative to input and to bound wild-type Nab3; settings: partners not purified
T2 construct: also called Nrd1-TAP; source: S. cerevisiae NRD1-TAP strain (ACY2293; Thermo Scientific Open Biosystems), in lysate
T2 sequence (looked up): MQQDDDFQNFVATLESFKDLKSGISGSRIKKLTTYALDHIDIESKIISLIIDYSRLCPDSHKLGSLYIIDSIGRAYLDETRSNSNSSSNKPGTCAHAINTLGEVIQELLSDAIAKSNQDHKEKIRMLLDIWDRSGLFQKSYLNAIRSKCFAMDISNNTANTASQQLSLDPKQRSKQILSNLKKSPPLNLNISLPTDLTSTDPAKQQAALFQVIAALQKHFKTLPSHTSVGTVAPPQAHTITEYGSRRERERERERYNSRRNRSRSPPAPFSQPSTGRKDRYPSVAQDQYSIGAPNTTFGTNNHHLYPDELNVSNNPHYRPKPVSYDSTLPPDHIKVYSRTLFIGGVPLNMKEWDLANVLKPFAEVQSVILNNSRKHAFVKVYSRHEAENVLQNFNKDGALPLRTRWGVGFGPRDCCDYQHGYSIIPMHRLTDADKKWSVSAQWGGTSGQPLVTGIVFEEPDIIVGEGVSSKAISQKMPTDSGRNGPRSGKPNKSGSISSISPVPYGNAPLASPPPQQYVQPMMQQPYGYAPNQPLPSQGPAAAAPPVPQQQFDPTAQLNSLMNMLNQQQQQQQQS

[3] = molecular target: B1; assay: pull-down; 8 μg purified GST fusion incubated with 14 μg purified His-Rrp6 and glutathione Sepharose 4B in IPP100 buffer (10 mM Tris-HCl pH 8, 100 mM NaCl, 0.1% NP-40) with 10 mg/ml BSA, 2 mM DTT, 2 hr at 4°C; anti-His immunoblot; settings: both partners purified

Binder: B1
binding result [1]: binds

% bound relative to wild-type Nab3 [2]: 8%
B2: Myc-tagged nab3-ΔNBD mutant (Δ204–248) (natural protein, S. cerevisiae, UniProt P38996 1-802, looked up)
chain: MSDENHNSDVQDIPSPELSVDSNSNENELMNNSSADDGIEFDAPEEEREAEREEENEEQHELEDVNDEEEEDKEEKGEENGEVINTEEEEEEEHQQKGGNDDDDDDNEEEEEEEEDDDDDDDDDDDDEEEEEEEEEEGNDNSSVGSDSAAEDGEDEEDKKDKTKDKEVELRRETLEKEQKDVDEAIKKITREENDNTHFPTNMSDTALSVPPHDSTISTTASASATSGARSNDQRKPPLSDAQRRMRFPRADLSKPITEEEHDRYAAYLHGENKITEMHNIPPKSRLFIGNLPLKNVSKEDLFRIFSPYGHIMQINIKNAFGFIQFDNPQSVRDAIECESQEMNFGKKLILEVSSSNARPQFDHGDHGTNSSSTFISSAKRPFQTESGDMYNDDNGAGYKKSRRHTVSCNIFVKRTADRTYAIEVFNRFRDGTGLETDMIFLKPRMELGKLINDAAYNGVWGVVLVNKTHNVDVQTFYKGSQGETKFDEYISISADDAVAIFNNIKNNRNNSRPTDYRAMSHQQNIYGAPPLPVPNGPAVGPPPQTNYYQGYSMPPPQQQQQQPYGNYGMPPPSHDQGYGSQPPIPMNQSYGRYQTSIPPPPPQQQIPQGYGRYQAGPPPQPPSQTPMDQQQLLSAIQNLPPNVVSNLLSMAQQQQQQPHAQQQLVGLIQSMQGQAPQQQQQQLGGYSSMNSSSPPPMSTNYNGQNISAKPSAPPMSHQPPPPQQQQQQQQQQQQQQQQPAGNNVQSLLDSLAKLQK
notes: also called nab3 NBD mutant; nab3-NBD; source: S. cerevisiae (NRD1-TAP, RRP6-TAP or DIS3-TAP cells), 2μ URA3 plasmid, in lysate; not shown: 2xMyc, C-terminal, kept

binding result [3]: binds
B3: GST-tagged Rrp47 (natural protein, S. cerevisiae, UniProt P38801 1-184, looked up)
chain: MEDIEKIKPYVRSFSKALDELKPEIEKLTSKSLDEQLLLLSDERAKLELINRYAYVLSSLMFANMKVLGVKDMSPILGELKRVKSYMDKAKQYDNRITKSNEKSQAEQEKAKNIISNVLDGNKNQFEPSISRSNFQGKHTKFENDELAESTTTKIIDSTDHIRKASSKKSKRLDKVGKKKGGKK
notes: Rrp47, S. cerevisiae exosome cofactor; RRP47 gene amplified (W303 gDNA template) and cloned into pGEX-TEV; also called GST-Rrp47; source: E. coli DE3 cells, purified (glutathione Sepharose 4B, batch)
